Patent US5969107
Where “and” joins values, the source holds several entries; their conditions need not be identical. Equal values may be shown once.

Key:
[1] = molecular target: murine monoclonal anti-EGFR antibody mAb 425 (ATCC HB 9629); assay: competition ELISA in solution by the method of Friguet, Scatchard plot
[2] = molecular target: Anti-EGFR Ab3 sera from Balb/c and B6D2F1 mice; assay: inhibition ELISA: anti-EGFR Ab3 sera preincubated with the Anti-Id, then on coated sEGFR
[3] = molecular target: murine monoclonal anti-EGFR antibody mAb 425 (ATCC HB 9629); assay: inhibition CellELISA on fixed A431 cells; reference 5A6 and 3B6

B1: 5A6 monoclonal anti-idiotypic antibody (Ab2) (antibody, V domains shown)
VH: DVKLVESGGGLVKLGGSLKLSCAASGFTFSNYYMSWVRQTPEKRLEFVAAINSNGGSTYYPDTVKGRFTISRDNAKNTLYLQMSSLKSEDTALYYCARHRGRDSSGYVGYAIDYWGQGTSVTVSS
VL: DILLTQSPAILSVSPGERVSFSCRASQSIGTSIHWYQQRTNGSPRLLISILLSLSLGVPSRFSGSGSGTDFTLSINSVESEDIADYYCQQSNSWPYTFGGGTKLEIKR
In the case of B1, the Kd [1] is reported as 1 nM and the percentage of inhibition [2] is reported as 100%.

B2: 15H8 monoclonal anti-idiotypic antibody (Ab2) (antibody, V domains shown)
VH: EVQLVESGGGLVKPGGSLKLSCAASGFTFSDYYMYWFRQHPGKRLEWVATISDAGTYTYYPDSLKGRFTISRDNAKNNLYLQMSSLKSEDTAMYFCARDGAARTSSQVYYYGMDYWGQGTSVTVSS
VL: DIVMTQSQKFMSTSVGDRVSITCKASQNVRTAVAWYQQKPGQSPKALIYLASNRHTGVPDRFTGSGSGTDFTLTISNVQSEDLADYFCLQHWNYPLTFGSGTKLEIKR
For B2, the Kd [1] was 0.3 nM, the percentage of inhibition [2] was 15% and 35% and the times more effective in inhibition than 5A6 and 3B6 [3] was 10 times.
